How the values were obtained:
[1] = tested on: rat luteal ovarian LH receptors; experiment: Inhibition of 125I-hCG binding to rat corpora luteal LH receptors (radioligand receptor assay); details: concentration of recombinant hCG for 50% inhibition of 125I-hCG binding divided by that of analog
From the text: (§1) The term "N.D." means not determined because concentrations of analog were not employed high enough to detect 50% inhibition.
(§2) An aliquot of the ligation mixture was taken and used to transform DH5-alpha strain E. coli. (obtained from Bethesda Research Laboratories, Gaithersburg, Md.). Plasmid DNAs from ampicillin-resistant DH5-alpha clones were screened by digestion with BglII (which is unique to vectors containing the cassette) and EcoRI (which cuts in the vector). Positive clones were identified by the presence of two fragments (approximately 0.8 Kbp and 2.9 Kbp). […] After the DNA was subjected to a dideoxy sequencing procedure to confirm that it encoded "GT" (Table 1), the plasmid DNA was then cotransfected into COS-7 cells (obtained from the American Type Culture Collection) along with pSVL-hCG-alpha, a pSVL-based plasmid encoding the human glycoprotein hormone alpha-subunit (10, 21), using a DEAE-dextran procedure (10).

[2] = tested on: bovine testes FSH receptors; experiment: Inhibition of 125I-hFSH binding to bovine testes tissue homogenates (radioligand receptor assay); details: concentration of recombinant hFSH for 50% inhibition of 125I-hFSH binding divided by that of analog
From the text: as §1, §2

B1: eCG: equine gonadotropin control (text calls the control eLH, equine lutropin) (protein)
chain: SRGPLRPLCRPINATLAAEKEACPICITFTTSICAGYCPSMVRVMPAALPAIPQPVCTYRELRFASIRLPGCPPGVDPMVSFPVALSCHCGPCQIKTTDCGVFRDQPLACAPQASSSSKDPPSQPLTSTSTPTPGASRRSSHPLPIKTS
Question: B1 was tested. Which “Activity at LH RECEPTORS relative to that of hCG” value [1] did it give?
Answer: 0.53

Question: And the “Activity at FSH RECEPTORS relative to that of hFSH” value [2]?
Answer: 0.18

Reference: patent publication US5508261A, “Analogs of glycoprotein hormones having altered receptor binding specificity and activity and methods for preparing and using same” (University of Medicine & Dentistry of New Jersey, priority 1995, dated 1996)
